Earlier results on one substance are cited in PMC5338744.

This data set has as its target VEGFR2 (KDR) (Homo sapiens) (UniProt P35968).
Sequence of UniProt P35968 (P35968 20-1356): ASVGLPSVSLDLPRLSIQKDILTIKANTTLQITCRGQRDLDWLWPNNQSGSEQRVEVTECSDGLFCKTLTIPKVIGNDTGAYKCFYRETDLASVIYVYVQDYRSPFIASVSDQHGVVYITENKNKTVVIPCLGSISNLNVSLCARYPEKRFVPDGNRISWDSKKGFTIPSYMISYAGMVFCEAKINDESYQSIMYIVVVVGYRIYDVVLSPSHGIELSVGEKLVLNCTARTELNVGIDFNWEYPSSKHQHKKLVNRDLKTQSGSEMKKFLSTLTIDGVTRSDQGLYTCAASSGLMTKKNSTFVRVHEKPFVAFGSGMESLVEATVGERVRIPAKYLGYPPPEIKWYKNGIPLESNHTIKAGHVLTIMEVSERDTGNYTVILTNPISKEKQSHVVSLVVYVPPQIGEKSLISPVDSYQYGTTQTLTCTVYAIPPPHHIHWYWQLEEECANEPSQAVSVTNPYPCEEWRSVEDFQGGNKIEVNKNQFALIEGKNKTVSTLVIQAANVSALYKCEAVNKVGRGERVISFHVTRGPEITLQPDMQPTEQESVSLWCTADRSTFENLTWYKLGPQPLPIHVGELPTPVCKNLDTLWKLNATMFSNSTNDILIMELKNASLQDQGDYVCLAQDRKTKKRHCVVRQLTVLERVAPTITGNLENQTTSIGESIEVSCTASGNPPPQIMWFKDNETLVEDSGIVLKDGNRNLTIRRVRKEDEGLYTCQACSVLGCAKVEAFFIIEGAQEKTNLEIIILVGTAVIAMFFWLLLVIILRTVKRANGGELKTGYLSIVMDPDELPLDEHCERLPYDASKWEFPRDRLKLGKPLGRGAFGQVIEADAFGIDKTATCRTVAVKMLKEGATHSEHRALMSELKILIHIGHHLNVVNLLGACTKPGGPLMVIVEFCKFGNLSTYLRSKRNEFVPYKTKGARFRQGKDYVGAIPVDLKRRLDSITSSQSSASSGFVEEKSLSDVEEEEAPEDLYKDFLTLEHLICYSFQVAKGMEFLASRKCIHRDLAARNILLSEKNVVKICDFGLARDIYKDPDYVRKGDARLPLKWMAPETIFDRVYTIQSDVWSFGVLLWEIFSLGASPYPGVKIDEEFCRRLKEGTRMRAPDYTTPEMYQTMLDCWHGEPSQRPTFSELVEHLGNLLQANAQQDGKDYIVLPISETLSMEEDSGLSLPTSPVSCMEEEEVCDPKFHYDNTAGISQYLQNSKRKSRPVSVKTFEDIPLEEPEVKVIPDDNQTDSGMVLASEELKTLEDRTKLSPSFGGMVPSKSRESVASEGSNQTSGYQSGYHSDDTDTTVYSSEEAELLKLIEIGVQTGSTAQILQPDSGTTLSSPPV

As usually defined, the Kd is a measure of binding affinity in units of concentration. As to VEGF (from UniProt P15692), the dissociation constant (Kd) was 0.76 nM.
